A protein production outcome set (Wang et al. 2014)

experiment: label from the status in PepcDB records

Which protein production does the source give for “MHISFIIPAFNEEQLIEPCLRSITDAVAANRSYGYTSEIIVVDNNSTDATAQLAKQAGAQVVFEPVNHIARARTAGAGAARGDWLVFMDADCLLNAGLVGDIFELIRQGRHIGAGSTLYMPGQPWWAEMLLRIWTFLSVQLGWAAGALIVCNAAAFREVGGFDLTLYAAEEIDLSQKLKKYGRKRKLKFAILNAHPLETSSRKTQLYSGWEIVGQFLRLVLSPLGTLRNKKKLPMWYDGRRLEHHHHHH” here?
The protein production was “not failed”.

For “MHKDELLELHEQMVTIMEYFRDDMDSVDPDLFDAYQELDVRPSDVHKSKSEHKHAVFVLGNSLATAMSEDEFSDAGRVSKRMKELAEDAERKLLEHHHHHH”, which protein production is on record?
Its protein production is “not failed”.

For “MHKKTVILIIFAILGGVMGAAYFTRAWLVMGITSRLVNNIIVNILLGAIIFLILGSLFAGVLVRLINRIEAYLNRQNPMTLIFGSLLTIVGLALALLISQFLFRVPSFFIGTVIPWILMILFGYFGYRIGARLSKIRLEEWRKLFQSRSKKAEEETDKQVLDKETEPNFHHYKILDTNILIDGRIYDLAKTGFLEGTLLVPNFVLYELQYIADSSDSVKRVRGRRGLDILNKLQNEHIMPIEMYEGDFEDIPEVDSKLIALAKQNGGVIVTNDYNLNKVIQFQNVQVLNINSLANALKPRVIPGENLHVMVVKNGTERQQGVAYLDDGTMVVVEDGRYFINKQLDVVVTSAIQTDAGRMIFAKPLHSNKNIEEQANAGKEGKGSNSAKPTKRSR”, which protein production is on record?
The protein production was “failed”.

Which protein production does the source give for “MHLATLASGSSGNSIVVGHEKRNFLVDCGISLKATLHNLAILDIAPSEIEGIFITHEHSDHIKGVGAVARKLKIPIYASAKIWDELNPSIGKLKDEQRVVVKDAFTCAGLRVRVFPTSHDSQESFGVRVEVEQPVKGRSRAIGIATDTGIVTEEMHQALKGCDALVVEANHDREMLWQGGYPWYLKKRISGNYGHLENSQLAEGLLQWIEGNTQRIVLAHLSDENNTPETALSTILRILKESRVAKENRDLRLRVAPRYTPHELIVLEEY” here?
The protein production was “failed”.

With “MHLKEILAQFSFFTAIPVKSSASLEEIAESSYISPIIVGISLGLIESVAYLILYRILGELTGIVLLGIIELLRGFNHLDGLLDLGDALMIRGNREKKIKALKDVEVGSGGIGLLLVYLSIQIVALLKLDFSLYTIFYLISSNVLSMSLSLYILSTISPIPESNLGRIFHDKLKGKSTILLLELIPFISLYNVIVFIIFYMIMYKICGSLGGSSGDIAGASITLSFPLFLITDEITNLNYSLLSILCYLFSHLH” as the sequence, how does the protein production read?
The protein production was “failed”.

For “MHLPPKLALTTGVLLVALPLATPAWGQPPTPASPLVQQLNNGNWLDPKEAETLRDELYYQRAIHAYMTMLPALNVIGMRDGSEKVFGAGYNVLPVWKERMDARTMVPTPNADVIYSMSYLDLKKTGPLVVKAPANVIGMFTDFFQRTLTDVGAIGPDRARGGLYLILPPDYDGHVPSSYFVVKSPTYNVFLFFRTIMGQGKGKPDPAPAVKAAETTRVYPLWAEEKDIKPMEFPDGSGKHINMMYPVDQEYWTKLKEFVDYEPVSAIDPELRGVLASIGIVKGQPFKPTAREQELLKRAVETAPKMILAMRQLGREDKRHLYYKDRQWERAWAGATAEWMQDSYLDVNQRATFFQIAYSSAPAMVMRTTGAGSKYPFTARDANGEFLNGSATYKLRMPPDAPAALFWAVTAYNVTDGTMPETDQLMPSTNGYYDIPKQKDGSTEIWFGPQKPADVADAAFIKTIPNRNFLVTLRLYGAEDAFYDQTWKPDDVVKVKLEHHHHHH”, which protein production is on record?
The protein production was “not failed”.

Which protein production does the source give for “MHLWWRYHLATIIILFAMILTIYFLVPPLFYIEIIGVIFILFLWYIISPGILLRVIKSKKVENEDVLRKFEYALALVQMKKIKLHEINSSKPNAFVLGNFLSYNVIVTRGLLESLNDRELISVLLHELHHIKNRDIEIQLIYVLIVNTFYIYIANYNPLLGLSELVIGVVLLFPVHRLLEKNADIKACRTTNWIPLNLANALVKIGYLSRFLPHEIIRDYSEVDLTLAKETILRDDKKGFIFSTHPALSERLKYISKFIKTL” here?
Its protein production is “failed”.

With “MHNDFNLLILSGPSGAGKSTLTKYLQEKIPKTHFSLSTTTRKPREGEVDGLHYNFVSEEEFKQGIEKGQFLEWAIVHNHYYGTSKIPVEKALKEGKIVIFDIDVQGHEILKKHYPNACSVFISTKNQEILKERLLLRGTDSKETIEKRLINAYKEMQCLESFDYLIINEDLEKSKEIILSIAKTLVHRLKAFNFEKICKAWKNETL” as the sequence, how does the protein production read?
The protein production was “failed”.

For “MHPSLKYMRKDRLPHIFCSGCGNGIVLNCFTNALDKLALKNEDYIAISGIGCSSRVPGYLFCDSLHTTHGRPIAFALGTKVIQNDKKVVVFTGDGDLSAIGGNHFIHGCRRNIDITVICINNNIYGMTGGQCSPTTPHEKKATTAPYGNPENPLDLCELAKAAGATYVARWTTANPIQLANSIKKGMDKKGFSFIEVVSQCPTYYGRFNVSRKPSEMMKNLKESAITVRKAESMEKEELLNKIVVGEFLNIEKPEYVEQLKKLQE”, which protein production is on record?
The protein production was “failed”.

Which protein production does the source give for “MHQLWTYDPAAGTVEVGAGTTNEGLVDGPGEEAWFAQPSGLAATADRLWLADSETSALRWVDLDGAVHTAVGTGLFDFGHRDGDAEQALLQHPLGVTALPDGSVAVSDTYNHALRRYDPATGEVTTLATDLREPSDAVLVGDDIVVVESARHRLTRLRLPEEAVRVASVAHRTQRAATEVAPGRLQLDVIFQAPAGQKLDTRYGPSTRLLVSSTPPELLLNGEGADPDLSRTLELNPAIPEGVLHVSAMAASCDDDPANEYPACHVHQQDWGVPVRLTEGGADRLPLVLAGMDALEHHHHHH” here?
The protein production was “failed”.

Which protein production does the source give for “MHQQTLWLFSGIALVLIIATLISETLRWRARERPSAVLDNLVARIRAWWVMAAVVGLAFVFGRAGVIGLFALVSLFALREFITLTPTRRGDYYALLAAFYVVLPWQYGLVWTGWYGLYTLLIPVYAFLVLPILATIGGDTTRYLERTAKVQWGLMICVFCISHVPALLNLDIPGYAGRNLLLIAFLVIVVQSSDVLQYVWGKLAGRHLIAPKLSPSKTVEGFIGGVVSASLLGMALWWITPFAPWHAFGLALVANLMGFFGGLVMSAIKRDRGIKDWGHMIEGHGGVLDRLDSVCFAAPVFFHLIRYGWA” here?
Its protein production is “failed”.

Which protein production does the source give for “MHRFLSGPLSVEQLTVNIAGLSASLQGKKLVHLSDFHYDGLRLSEEMLAEAIAVSNQVQPDLVLLTGDYVTTTPQPIHQLAKRLQKLQSHAGIYAILGNHDLYQKNSKTEITQALTKAGIQVLWNEIAYPLGEELPIVGIVDYYYREFNPQLLFNQLEPTTPRIVLCHNPDTAAMLQGWRVDLQLSGHTHGGQIVIPGLGAVLPYHKKIVRRVPIKIRRLFPLFFKDYFIVRHAEWLQGLHRIGKNQLYVNRGLGTYLPGRLFCPPELTVITLEAE” here?
Its protein production is “failed”.

With “MHRLRNLREDVSDGSLGHGGGGLMYDVVVVGAGPAGSMAAKTAAEQGLKVLLVEKRQEIGTPVRCAEGISRESIEKFFEVDKKWIAAEVTGAKIYAPNKTEIVMSEEMAGNEVGYVLERKIFDRHVARLAAKAGAEVYVKTAMVDFERKDGKVKVKLRRLGEDWEVETKILIGADGVESKIGRKAGIIKTLKLNEVESCAQYLMTGLDIDESYTYFYLGRELAPGGYAWIFPKGNGSANVGIGVLPKMAERTAKEYLDAFIEKEGIEGKIVEFVAGAVPVYGEIETAVADNIMLAGDAAYHADPITGGGIANALSAGYYAGKVAAEAVQKNDFSADFLRRYDELWKNDFGKKLRRNKKLQLKFIDMDDALLNKLAGAIAGKNLREMSVAAIVKELLKAHPKLLWDLKDLFLEHHHHHH” as the sequence, how does the protein production read?
Its protein production is “not failed”.

For “MHRSTFIRTSGTSSRTLTARYRSQYTGLLVARVLFSTSTTRAQGGNPRSPLQIFRDTFKKEWEKSQELQENIKTLQDASGKLGESEAYKKAREAYLKAQRGSTIVGKTLKKTGETMEHIATKAWESELGKNTRKAAAATAKKLDESFEPVRQTKIYKEVSEVIDDGESSRYGGFITKEQRRLKRERDLASGKRHRAVKSNEDAGTAVVATNIESKESFGKKVEDFKEKTVVGRSIQSLKNKLWDESENPLIVVMRKITNKVGGFFAETESSRVYSQFKLMDPTFSNESFTRHLREYIVPEILEAYVKGDVKVLKKWFSEAPFNVYAAQQKIFKEQDVYADGRILDIRGVEIVSAKLLAPQDIPVLVVGCRAQEINLYRKKKTGEIAAGDEANILMSSYAMVFTRDPEQIDDDETEGWKILEFVRGGSRQFT”, which protein production is on record?
Its protein production is “failed”.

Which protein production does the source give for “MHRVGSAGSNGGSVRTRKEKKLTYVLNDANDTKHCAGINCLDVLKSSVSNDQSYLFTGSRDGTLKRWAFDEDATFCSATFESHVDWVNDAALAGESTLVSCSSDTTVKTWDGLSDGVCTRTLRQHSDYVTCLAVAAKNNNVVASGGLGGEVFIWDIEAALSPVTKPNDANEDSSSNGANGPVTSLRTVGSSNNISVQSSPSHGYTPTIAKGHKESVYALAMNDTGTMLVSGGTEKVLRVWDPRTGSKSMKLRGHTDNVRVLLLDSTGRFCLSGSSDSMIRLWDLGQQRCLHTYAVHTDSVWALACNPSFSHVYSGGRDQCLYLTDLATRESVLLCTKEHPIQQLALQDNSIWVATTDSSVERWPAEVQSPKTVFQRGGSFLAGNLSFNRARVSLEGLNPAPAYKEPSITVPGTHPIVQHEILNNKRQILTKDAAGSVKLWDITRGVVVEDYGKISFEEKKEELFEMVSIPSWFTVDTRLGCLSVHLETPQCFSAEMYSADLKVSGRPEDDKINLARETLKGLLGHWLAKKKHKPKPQVLASGDTLSVKDTKKNLSASKTEESSAASDPVYPPFEFSSVSPPSIITEGSQGGPWRKKITEFTGTEDEKDFPLWCLDAVLNNRLPPRENTKLSFFLHPCEGSSVQVVTLGKLSAPRILRVHKVTNYVVEKMVLDNPLDSLAIDAASVSGGQPQPLFSGNGLLQSGLKPWQKLRPSIEILCNSQVLSPDMSLATVRAYVWKKPEDLILNYRVAIAR” here?
Its protein production is “failed”.

Which protein production does the source give for “MHSATIIIGIVCGWIFILTTVQFLYLLIIKRDLQPTGWCSFMEKDYLGISSTVLVSLLFGLALVLVNSWFNQPTVEEVVPRSTYLMVMIALFFIDTVAFIFMQLYFIYDRRQFSNCILSLAFLSCLIYFIKTVIIIQQIIEGRLTSSVVQNDIAIYYLFRQMSLCILIFLALVNKVSENTKQRNLFSKKMTLCISLFFVVGGPIVAHILSSHYESYNLHIAELTNENDQVVWKASYVTIMIFMWLTLLSVNLYFNGLRCDIWNGVTVIAFCAVLYNVSLLFMSRYSVSIWYISRTIEVVSKLTVMVIFMCHIFSALRVTKDIAHRDSLTNIFNRNYFFNELTVQSASAKKTPYCVMIMDIDHFKKVNDTWGHPVGDQVIKTVVSIIGKSIRPDDLFARVGGEEFGVLLTDIDTERAKALAERIRENVERLTGDNPEYAIPQKVTISIGAVVTQKNELNPKEIYQLADNALYEAKETGRNKVVVKEAEILINRKDDE” here?
Its protein production is “failed”.

With “MHSDSGSDSGSDSGSGSPMVSSIHPSEPIQPMEHVLEEADARLLTEVGFLAAAVSDLTRADAIFNALQRVRPGRTHPCIGLAVARMNAGLPDEAAEILANFQPAQPEDRSELDAWCGFALLLAGRSDEARRMLQRAIDAGGEAARLAQVVLDSGPAMMRPAPLQSEPLPGAPG” as the sequence, how does the protein production read?
Its protein production is “failed”.

For “MHSEHGRQNVKVELKGVHRVRRKLASGETAVYHYAWRGGPRIDAAPGSAEFVAAYNAAHAARDRPVHHDGTLQALITAYQKTPAFTDLAEATRKGYIRHIRQIEADFGDMPVQALADPRVRGEFLDWRDRLAQKSKRSADYAFSVLARILSWAHDRRKIPVNPCEKPGRLYTGSRADSIWTEAQIAAFLAVAPRPVRLPFLLAIWTGQRQADILQLTWTAYDGQAIRLRQSKTGRHMLIPVAQPLREAMEEAKARRRTLTICETSRGQPWTSDGFKTSFGKAQASAGIEGVTFHDLRGTAVTFLALAGCSVPEIAALTGHSLKDAEGILSKHYLGRDRRLGESAVAKLEKHGVGTPTVKRAVKRRGPEGGDSV”, which protein production is on record?
Its protein production is “failed”.
